PMC4705688

Key:
[1] = target: His-Cmr HTH- del195-244 (Mycobacterium tuberculosis H37Rv) (UniProt P9WMH5); test: EMSA
[2] = target: His-Cmr (Mycobacterium tuberculosis H37Rv) (UniProt P9WMH5); test: EMSA
[3] = target: His-Cmr HTH+ del217-244 (Mycobacterium tuberculosis H37Rv) (UniProt P9WMH5); test: EMSA
[4] = target: His-Cmr (Mycobacterium tuberculosis H37Rv) (UniProt P9WMH5); test: DNase I footprinting

Sequence of His-Cmr (Mycobacterium tuberculosis H37Rv) (P9WMH5 whole entry): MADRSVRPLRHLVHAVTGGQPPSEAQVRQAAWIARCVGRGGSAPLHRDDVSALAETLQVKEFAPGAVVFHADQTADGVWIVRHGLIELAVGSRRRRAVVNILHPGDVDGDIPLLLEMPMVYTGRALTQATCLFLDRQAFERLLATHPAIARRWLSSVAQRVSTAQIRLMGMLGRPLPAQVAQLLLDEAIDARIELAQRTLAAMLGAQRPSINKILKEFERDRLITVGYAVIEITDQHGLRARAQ
Sequence of His-Cmr HTH+ del217-244 (Mycobacterium tuberculosis H37Rv) (P9WMH5 1-216): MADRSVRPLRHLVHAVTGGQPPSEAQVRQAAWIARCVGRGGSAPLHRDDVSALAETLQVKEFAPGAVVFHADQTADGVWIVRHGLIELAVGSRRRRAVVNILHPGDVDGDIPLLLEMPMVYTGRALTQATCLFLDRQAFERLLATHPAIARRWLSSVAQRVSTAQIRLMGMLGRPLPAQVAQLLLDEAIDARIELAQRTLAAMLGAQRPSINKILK
Sequence of His-Cmr HTH- del195-244 (Mycobacterium tuberculosis H37Rv) (P9WMH5 1-194): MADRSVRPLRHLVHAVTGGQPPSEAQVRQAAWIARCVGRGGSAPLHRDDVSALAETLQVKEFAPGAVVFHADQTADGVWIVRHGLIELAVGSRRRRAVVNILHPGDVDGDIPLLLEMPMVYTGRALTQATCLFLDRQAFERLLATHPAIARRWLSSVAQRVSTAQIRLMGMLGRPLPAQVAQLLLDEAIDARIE

Sequence | binding [1] | binding [2] | binding [3] | binding [4]
ATCTCAACTATGTGGCCTTGTCCTTAGTCACCGCCGACGGACACACCCTGCTGCACCACCCGTATACCCAGAGCGAGGTGGACATCAAGAAGAACGTGTTCACGATGATGATGCGGCTACCGTGGTTGTATCGCGTTCCCGTACATACGATTCACAAATTTGGCCACATGCTCAGCGGCATGGCGATCCGGATCGTC (double strand) [2G5 full] | no binding | binds | binds | 
CGGACTGCTGCTGCTCGCCGTTGTCTCCGGTGATTGGGTTGCCCATACCTCCTGGGGCGCAGCGTGGTTCAGCTTGTCACCGGTGACACTGTGTTGGCTTCTCATCAGCTATGGCTTCGCAGCTTCGGTGCTGCCGGTGTGGCTGCTGCTCGCGCCACGCGACTACCTGTCAACGTTCATGAAGG (double strand) [1C1 full] | no binding | binds | binds | binds
TAAAGTCACCGCCGGGGCCGATGTTCGCAGTCGCGGGCTCGGTGCCATCCATATCGTTGCGCAGCGCGATGCCGTGCCAATGCACCGACGTCGGATCACCCAGACGGTTGGTCACCGAGACGACAATCTCATCCCCGACGGTGGCCCGGATCAGTGGTCCGGGGATGGTGTTGCCGTAGGTCAGCGTGCTGACGATCGGCCCACCCAGGTCGATCCTCGCCGGCTGGGGGGTCAGCGTGGCGGTAACCGTTCGCCCACTGTGCGGCCGGGCCGCCTCGGCCGCGTCGATTGCAGCGGT (double strand) [Rv0846c] |  | binds |  | 
TCTATGGCGGCCAGGGACGCACATTGTGGGCTTCGGGGTAATTGTCTTGGGTTGGCTGCCCCGCGCTGCACAGGGTTACTGGCCCAGGAGGCGGACGTCATCGTGTTAACACCCGTCGGGATAACCTGGGAGCGGCGCAGCCAAGGAAGGAACCAACCGTCCGGTGTCAGACCTAGCCAGAACCGACGTCGTGCTGATC (double strand) [2C5 full] | no binding | binds | binds | 
